Results: patent publication US20120164161A1 (AFFITECH RESEARCH, published 2012)

T1: human CC chemokine receptor 4 (CCR4) (human, UniProt P51679 1-360)
T1 sequence (looked up): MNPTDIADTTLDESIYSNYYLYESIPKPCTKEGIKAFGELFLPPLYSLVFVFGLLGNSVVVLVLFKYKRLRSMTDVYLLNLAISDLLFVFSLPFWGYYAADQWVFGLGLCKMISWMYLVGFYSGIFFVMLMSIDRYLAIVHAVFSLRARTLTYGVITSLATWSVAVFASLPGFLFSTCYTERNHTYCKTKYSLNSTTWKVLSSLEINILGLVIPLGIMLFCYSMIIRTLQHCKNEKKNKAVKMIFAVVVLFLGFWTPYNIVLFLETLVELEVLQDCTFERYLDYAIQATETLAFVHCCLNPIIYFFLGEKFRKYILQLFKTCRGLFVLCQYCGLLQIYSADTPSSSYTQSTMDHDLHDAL


What was measured:
[1] = molecular target: T1, human CC chemokine receptor 4 (CCR4); assay: cell-based or functional assay
[2] = molecular target: T1, human CC chemokine receptor 4 (CCR4); assay: competition in flow cytometry on CCRF-CEM cells: scFv titrated against 50 nM Alexa647-labelled MDC-SNAP; remaining MDC-SNAP signal (Alexa 647)
Description: To determine whether the anti-CCR4 antibodies from Example 1 interfere with the binding of CCR4 ligands to the receptor, competition experiments were performed. […] The SNAP-tag is derived from the 20 kDa DNA repair protein 06-alkylguanine-DNA alkyltransferase.
The CCR4+ CCRF-CEM-cells were harvested from culture flasks, washed 2 times with RPMI-1640 culture medium and aliquot 1×10^5 cells per well into V-shaped 96-well plates (Greiner Bio-One, Frickenhausen, Germany). Cells were centrifuged at 500×g for 5 minutes and the supernatant was aspirated.

[3] = molecular target: T1, human CC chemokine receptor 4 (CCR4); assay: cell-based or functional assay; remark: listed apart in the source

Binder	IC50 of inhibition of TARC-mediated Ca-Flux in CCRF-CEM cells [1]	IC50 (read off the curve) [2]	also measured
208 scFv (scFv, not shown: small tags and cut ends) scFv: QVQLVQSGAEVKKPGSSVKVSCKASGGTFSSYAMSWVRQAPGQGLEWMGGIIPIFGTVNYAQKFQGRVTMTRDTSTSTVYMELSSLRSDDTAVYYCARRGGSYFDYWGQGTLVTVSSKLSGSASAPKLEEGEFSEARVSYVLTQPPSASGTPGQSVTISCSGSTSNIGSHYVFWYQQLPGTAPRLLIYRNHQRPSGVPDRLSGSKSGTSASLAISGLRSEDEADYYCAVWDAKYRGWVFGGGTKLTVL	1.9 pM		
306 scFv (scFv, not shown: small tags and cut ends) scFv: QVQLVQSGAEVKKPGSSVKVSCKASGGTFSSYAMSWVRQAPGQGLEWMGGIIPIFGTVNYAQKFQGRVTMTRDTSTSTVYMELSSLRPDDTAVYYCARRGGSYFDYWGQGTLVTVSSKLSGSASAPKLEEGEFSEARVSYVLTQPPSASGTPGQSVTISCSGSTSNIGSHYVSWYQQLPGTAPRLLIYRNHQRPSGVPDRLSGSKSGTSASLAISGLRSEDEADYYCAVWDAKYRGWVFGGGTKLTVL	1.2 pM		
308 scFv (scFv, not shown: small tags and cut ends) scFv: QVQLVQSGAEVKKPGSSVKVSCKASGGTFSSYAMSWVRQAPGQGLEWMGGIIPIFGTVNYAQKFQGRVTMTRDTSTSTVYMELSSLRPDDTAVYYCARRGGSYFDYWGQGTLVTVSSKLSGSASAPKLEEGEFSEARVSYVLTQPPSASGTPGQSVTISCSGSTSNIGSHYVFWYQQLPGTAPRLLIYRNHQRPSGVPDRLSGSKSGTSASLAISGLRSEDEADYYCAVWDAKYRGWVFGGGTKLTVL	3 pM		
406 scFv (scFv, not shown: small tags and cut ends, Expressed in TG1 bacteria) scFv: QVQLVQSGAEVKKPGSSVKVSCKASEGTFSSYAMSWVRQAPGQGLEWMGGIIPIFGTVNYAQKFQGRVTMTRDTSTSTVYMELSSLRSDDTAVYYCARRGGSYFDYWGQGTLVTVSSKLSGSASAPKLEEGEFSEARVSYVLTQPPSASGTPGQSVTISCSGSTSNIGSHYVSWYQQLPGTAPRLLIYRNHQRPSGVPDRLSGSKSGTSASLAISGLRSEDEADYYCAVWDAKYRGWVFGGGTKLTVL	1 pM	~100 pM	
KW0761 IgG (antibody, V domains shown) VH: EVQLVESGGDLVQPGRSLRLSCAASGFIFSNYGMSWVRQAPGKGLEWVATISSASTYSYYPDSVKGRFTISRDNAKNSLYLQMNSLRVEDTALYYCGRHSDGNFAFGYWGQGTLVTVSS VL: DVLMTQSPLSLPVTPGEPASISCRSSRNIVHINGDTYLEWYLQKPGQSPQLLIYKVSNRFSGVPDRFSGSGSGTDFTLKISRVEAEDVGVYYCFQGSLLPWTFGQGTKVEIK			ADCC on CCRF-CEM cells with human PBMCs, EC50 [3]: 315 pM; ADCC on CCRF-CEM cells, Max. Killing (%; nM IgG) [3]: 69.8 % (at 1.4 nM IgG); ADCC on L-428 cells with human PBMCs, EC50 [3]: 57 pM; ADCC on L-428 cells, Max. Killing (%; nM IgG) [3]: 84 % (at 7 nM IgG)

Now from value to binder, other results behind:

IC50 of inhibition of TARC-mediated Ca-Flux in CCRF-CEM cells [1]	IC50 (read off the curve) [2]	Binder	also measured
10 pM	~200 pM	803 scFv (scFv, not shown: small tags and cut ends, Expressed in TG1 bacteria; also called scFv 803; antibody 803 (single chain form)) scFv: QVQLVQSGAEVKKPGSSVKVSCKASGGTFSSYAISWVRQAPGQGLEWMGGIIPIFGTANYAQKFQGRVTMTRDTSTSTVYMELSSLRSEDTAVYYCARRRGAKFDYWGQGTLVTVSSKLSGSASAPKLEEGEFSEARVSYVLTQPPSASGTPGQSVTISCSGSTSNIGSHYVVWYQQLPGTAPRLLIYRNHQRPSGVPDRLSGSKSGTSASLAIGGLRSEDEADYYCAVWDDTLSGWVFGGGTKLTVL	
1.2 pM	~300 pM	503 scFv (scFv, not shown: small tags and cut ends, Expressed in TG1 bacteria) scFv: QVQLVQSGAEVKKPGSSVKVSCKASEGTFSSYAMSWVRQAPGQGLEWMGGIIPIFGTVNYAQKFQGRVTMTRDTSTSTVYMELSSLRSDDTAVYYCARRRGAKFDYWGQGTLVTVSSKLSGSASAPKLEEGEFSEARVSYVLTQPPSASGTPGQSVTISCSGSTSNIGSHYVVWYQQLPGTAPRLLIYRNHQRPSGVPDRLSGSKSGTSASLAIGGLRSEDEADYYCAVWDDTLSGWVFGGGTKLTVL	
1 pM	~300 pM	501 scFv (scFv, not shown: small tags and cut ends, Expressed in TG1 bacteria; also called scFv 501; antibody 501 (single chain form)) scFv: QVQLVQSGAEVKKPGSSVKVSCKASEGTFSSYAMSWVRQAPGQGLEWMGGIIPIFGTVNYAQKFQGRVTMTRDTSTSTVYMELSSLRSDDTAVYYCARRRGAKFDYWGQGTLVTVSSKLSGSASAPKLEEGEFSEARVSYVLTQQPSASGTPGQSVTISCSGSTSNIGSHYVVWYQQLPGTAPRLLIYRNHQRPSGVPDRLSGSKSGTSASLAIGGLRSEDEADYYCAVWDDTLSGWVFGGGTKLTVL	
3 pM		601 scFv (scFv, not shown: small tags and cut ends) scFv: QVQLVQSGAEVKKPGSSVKVSCKASGGTFSSYAMSWVRQAPGQGLEWMGGIIPIFGTVNYAQKFQGRVTMTRDTSTSTVYMELSSLRSDDTAVYYCARRRGAKFDYWGQGTLVTVSSKLSGSASAPKLEEGEFSEARVSYVLTQQPSASGTPGQSVTISCSGSTSNIGSHYVVWYQQLPGTAPRLLIYRNHQRPSGVPDRLSGSKSGTSASLAIGGLRSEDEADYYCAVWDDTLSGWVFGGGTKLTV	
